Measured values reported in publication PMC2112059.

Molecular target: Triton X-100-insoluble residue of platelets (platelet cytoskeleton) (human (endogenous in platelets)) (UniProt P60709)
Assay: co-sedimentation

- percent of radioactivity in the supernatant fraction, without m1: > 95%
Substance: platelet surface glycoprotein GPIII (from UniProt P05106 27-788) (natural protein)
